{"source": "paper PMC10848707", "molecular_target": "T1, recombinant influenza A virus nucleoprotein (A/WSN/1933) (influenza A virus (A/WSN/1933)), P15682", "T1 chain": "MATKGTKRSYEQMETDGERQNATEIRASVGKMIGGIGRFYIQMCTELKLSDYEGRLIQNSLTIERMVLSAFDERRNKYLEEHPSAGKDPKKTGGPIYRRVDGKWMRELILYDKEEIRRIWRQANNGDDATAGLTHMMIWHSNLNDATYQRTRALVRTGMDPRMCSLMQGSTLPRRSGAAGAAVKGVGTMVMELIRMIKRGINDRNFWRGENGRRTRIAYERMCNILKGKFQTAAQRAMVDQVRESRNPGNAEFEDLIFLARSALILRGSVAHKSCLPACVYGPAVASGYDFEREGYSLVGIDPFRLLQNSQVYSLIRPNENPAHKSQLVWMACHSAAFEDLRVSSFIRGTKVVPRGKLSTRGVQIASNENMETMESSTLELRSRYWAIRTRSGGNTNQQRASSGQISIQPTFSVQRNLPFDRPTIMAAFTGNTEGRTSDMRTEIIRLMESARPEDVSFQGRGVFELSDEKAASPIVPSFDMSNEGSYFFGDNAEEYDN", "assay": "negative staining EM; freshly assembled RNP-like mixture (NP with 12-nt RNA) diluted to 0.05 mg/ml, 2% sodium silicotungstate pH 7.0", "settings": "remark: other sources report otherwise", "note": "Several values for one entry are separate records, joined by “and”; a condition that tells them apart may be missing. Identical values can stand only once."}
{"binder": "recombinant influenza A virus nucleoprotein (A/WSN/1933), P15682 (natural protein) MATKGTKRSYEQMETDGERQNATEIRASVGKMIGGIGRFYIQMCTELKLSDYEGRLIQNSLTIERMVLSAFDERRNKYLEEHPSAGKDPKKTGGPIYRRVDGKWMRELILYDKEEIRRIWRQANNGDDATAGLTHMMIWHSNLNDATYQRTRALVRTGMDPRMCSLMQGSTLPRRSGAAGAAVKGVGTMVMELIRMIKRGINDRNFWRGENGRRTRIAYERMCNILKGKFQTAAQRAMVDQVRESRNPGNAEFEDLIFLARSALILRGSVAHKSCLPACVYGPAVASGYDFEREGYSLVGIDPFRLLQNSQVYSLIRPNENPAHKSQLVWMACHSAAFEDLRVSSFIRGTKVVPRGKLSTRGVQIASNENMETMESSTLELRSRYWAIRTRSGGNTNQQRASSGQISIQPTFSVQRNLPFDRPTIMAAFTGNTEGRTSDMRTEIIRLMESARPEDVSFQGRGVFELSDEKAASPIVPSFDMSNEGSYFFGDNAEEYDN", "values": [{"measurement": "stoichiometry N", "result": "3 and 4"}]}
